{
  "source": "patent US20090305963A1",
  "about": "“Lipocalin 2 for the Treatment, Prevention, and Management of Cancer Metastasis, Angiogenesis, and Fibrosis” (priority 2005, published 2009)",
  "test_system": "serum-response element (SRE)",
  "assay": "SRE-luciferase assay",
  "assay_type": "cell-based, mouse",
  "conditions": "RL cells; 48 hour incubation in serum free DMEM",
  "protocol": "After transient transfection of the plasmids, cells were incubated for 20 hours in 10% FCS and luciferase activity in the cell lysates was determined using a luminometer normalized by sea-pansy luciferase activity under the control of the thymidine kinase promoter. The Dual-Luciferase Reporter Assay System was purchased from Promega (Madison, Wis.) (Hanai et al., J. Biol. Chem. 277:16464-16469, 2002).\nFor these experiments, EV and R cells were starved in DMEM without serum for 48 hours. During this time, half of the R cells were incubated with 50 μg/ml of lipocalin 2 protein with iron-loaded siderophore (R+Lipo:Sid:Fe), after which all cells were incubated with 10% FCS containing DMEM for 20 minutes and then harvested for western blotting with phosphospecific antibodies. Signaling events downstream of ERK activation were then monitored with a multi-copy serum-response element (SRE)-luciferase construct introduced into EV, R, and RL (FIG. 6B). For these experiments, an SRE-luciferase assay was performed on 4T1 clones after the 48 hour incubation in serum free DMEM. […] Just like R cells treated with exogenous protein (FIG. 6A), R cells infection with recombinant adenovirus carrying lipocalin 2, but not GFP, reduced SRE-luciferase activity, MEK, and ERK1/2 phosphorylation, without altering ras expression.\nTo localize the effect of lipocalin on ras-MAPK signaling, we utilized an adenovirus and expression plasmid encoding a constitutively active MEK (MEK-DD) (Murakami et al., Cell Growth Differ 10:333-342, 1999). MEK-DD adenoviral infection of EV cells led to increased SRE-luciferase activity (increased MAPK activity). […] RL cells in a 6-well plate were infected with an adenovirus carrying the MEK dominant active form (MEK-DD) and a Lac-Z adenovirus at the indicated multiplicities (MOI) in 2% serum including DMEM medium for 48 hours. Cells were then trypsinized, respread on 6-well plate at 5-10% confluency, and incubated with 10% serum including DMEM medium. Cell lysates were collected for western blotting 48 hours after the final plating (FIG. 6D). […]",
  "data": [
    {"molecule": "lipocalin 2: human lipocalin 2 cDNA (HA tagged) in pcDNA3.1, stably expressed in 4T1-ras cells (RL clone); iron-siderophore binding protein (protein, UniProt P80188 21-198, looked up, HA tag) Neutrophil …: QDSTSDLIPAPPLSKVPLQQNFQDNQFQGKWYVVGLAGNAILREDKDPQKMYATIYELKEDKSYNVTSVLFRKKKCDYWIRTFVPGCQPGEFTLGNIKSYPGLTSYLVRVVSTNYNQHAMVFFKKVSQNREYFKITLYGRTKELTSELKENFIRFSKSLGLPENHIVFPVPIDQCIDG", "values": [
      {"measurement": "SRE-luciferase activity relative to R cells", "value": "about half to two-thirds"}
    ]}
  ]
}
